Measured values: patent US20220064321A1

Columns and labels:
[1] = target: FcγRIIIa(V158) (Sino Biological Inc, 10389-H08C1) (UniProt P08637); assay: binding ELISA; His-tagged FcγRIIIa captured by anti-His antibody, IgG pre-complexed with goat F(ab')2 anti-human-κ, HRP anti-human F(ab')2 detection
[2] = target: CD16a on effector cells NK92MI-CD16a (UniProt P08637); assay: cell-based or functional assay
CD16a on effector cells NK92MI-CD16a, sequence (P08637 17-254 limits assumed): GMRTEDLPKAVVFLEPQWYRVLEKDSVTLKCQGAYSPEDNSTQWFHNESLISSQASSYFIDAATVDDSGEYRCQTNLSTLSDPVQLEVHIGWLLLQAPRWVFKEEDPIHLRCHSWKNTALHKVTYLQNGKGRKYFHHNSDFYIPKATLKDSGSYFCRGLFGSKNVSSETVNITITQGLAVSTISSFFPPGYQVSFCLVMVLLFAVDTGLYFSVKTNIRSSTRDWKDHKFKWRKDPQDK

FcγRIIIa(V158) (Sino Biological Inc, 10389-H08C1), sequence (P08637 17-208 F176V limits assumed): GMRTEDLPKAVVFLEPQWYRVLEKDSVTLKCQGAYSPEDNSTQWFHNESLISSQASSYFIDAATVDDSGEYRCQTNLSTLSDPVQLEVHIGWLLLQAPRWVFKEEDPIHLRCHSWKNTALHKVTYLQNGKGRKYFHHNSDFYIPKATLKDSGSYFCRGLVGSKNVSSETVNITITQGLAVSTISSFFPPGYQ

Substance: RITUXAN® (rituximab) (antibody)
- EC50 [1]: 0.194 µg/mL
- ADCC Target cell: Daudi, EC50 [2]: 4.53 ng/mL
- ADCC Target cell: Raji, EC50 [2]: 0.345 ng/mL
